This is an account of results in US20230181719A1, “NGR CONJUGATES AND USES THEREOF” (OSPEDALE SAN RAFFAELE S.R.L., priority 2020, published 2023).

Starred links: 1 amine or outer side, 2 acyl side, 3 side chain; linkers in the order of their positions; H or OH if unused. Positions of bridges follow the written chain, without caps; N, C: chain ends. Non-standard residues stand in square brackets, D forms with d. Residues, ends and D or L forms follow the SMILES beside them. No end group written: not given here. βAsp = O=C(O)[C@H](CC(=O)[*:2])N[*:1]

The nature of series [1]: Peptide deamidation stability upon incubation at 37° C., by mass spectrometry. Type of series: physicochemical. The following applies: pH 7.4. The procedure:
FIG. 11. The peptide SCNGRCGVRY (SEQ ID NO: 3) has a lower propensity to deamidate than CNGRCGVRY (SEQ ID NO:4) in a physiological buffer at […], but not in ammonium bicarbonate buffer at pH 8.5. A and B) MS analysis of SCNGRCGVRY (SEQ ID NO: 3) and CNGRCGVRY (SEQ ID NO:4) after incubation at 37° C. for the indicated time in 50 mM sodium phosphate buffer, pH 7.4 (PBS) or 0.1 M ammonium bicarbonate buffer, pH 8.5 (Ambic). The values +0, + 1, -17 reported in the plot correspond to the difference between the observed and the expected molecular mass of peptides expressed in daltons. MS analysis was performed using the LTQ-Orbitrap mass spectrometer (Thermo Scientific).
To assess whether the addition of the serine residue to CNGRCG (SEQ ID NO:1) might affect its deamidation propensity inventors synthetized the SCNGRCGVRY (SEQ ID NO: 3) and CNGRCGVRY (SEQ ID NO:4) peptides and studied their stability upon incubation at 37° C. in PBS, pH 7.4, by mass spectrometry.
A similar experiment was then performed with peptides in 0.1 M ammonium bicarbonate, pH 8.5, a condition known to force Asn deamidation (Curnis et al. 2006). […] Furthermore, the succinimide-derivative of S-NGR-TNF, when formed, is more prone to hydrolysis.

The target of series [2] is αvβ3 (Homo sapiens, UniProt P05106+P06756). In words: Competitive binding of acetyl-CisoDGRCG/streptavidin-peroxidase to integrin-coated microtiterplates. The following applies: αvβ3, αvβ5, αvβ6, αvβ8 and α5β1 (all integrins). From the text: To assess whether the isoDGR derivative of S-NGR-TNF and NGR-TNF targeting domains can recognize integrins with similar affinities inventors then analysed the binding of SCisoDGRCGVRY (SEQ ID NO: 17), CisoDGRCGVRY and acetyl-CisoDGRCGVRY to αvβ3, αvβ5, αvβ6 αvβ8 and α5β1 integrins using a competitive binding assay previously described (Curnis et al. 2010). […] As expected […] (SEQ ID NO: 3) and […] […] Considering that human NGR-TNF contains acetylated and non-acetylated forms and that both CNGRC (SEQ ID NO:5) and acetyl-CNGRC can undergo deamidation (Curnis et al. 2010), inventors can conclude that the isoDGR derivative of S-NGR-TNF, if formed, behave in a manner similar to those of the isoDGR derivatives of NGR-TNF in terms of integrin recognition.

The test system of series [3] is L-M cells. In words: LM-cells cytolytic assay (MTT). Type of series: cell-based. The following applies: actinomycin D, 20 h, murine proteins. From the text:
FIG. 8. Biochemical and biological characterization of murine S-NGR-TNF and NGR-TNF. A) SDS-PAGE under reducing (βMe +) and non-reducing conditions (βMe -) of murine S-NGR-TNF, NGR-TNF and TNF. Arrows: bands corresponding to monomeric subunits (mon) and reducible dimers (dim). B) Representative mass spectra of murine NGR-TNF, TNF and S-NGR-TNF as determined by a Q Exactive HF mass spectrometer. Expected average masses are shown. C) Cytotoxic activity of TNF, NGR-TNF and S-NGR-TNF against L-M cells. L-M cells were incubated in DMEM medium supplemented with 2 mM glutamine, 100 U/ml penicillin, 100 µg/ml streptomycin, 0.25 µg/ml amphotericin-B, 10% fetal bovine serum, 2 µg/ml actinomycin D and TNF, NGR-TNF or S-NGR-TNF at the indicated doses (20 h at 37° C., 5% CO2). Cell viability was quantified by standard 3-(4,5-dimethylthiazol-2-yl)-2,5-diphenyltetrazolium bromide (MTT) assay. D) Binding of TNF, NGR-TNF and S-NGR-TNF to sTNF-R1 (Etanercept). Microtiterplates were precoated with or without the indicated amount of sTNF-R1 (for 16 h), washed with PBS, blocked with PBS containing 3% milk, 1% BSA (binding buffer, 1 h) and incubated with the indicated amounts of TNF, NGR-TNF or S-NGR-TNF diluted in binding buffer (for 1.5 h). The binding of each protein to sTNF-R1 was then detected using a polyclonal anti-murine TNF (IP301, 5 µg/ml in binding buffer, 1 h) followed by a polyclonal goat anti-rabbit antibody conjugated with horseradish peroxidase (1:1000 in binding buffer, 1 h) and o-phenylendiammine as chromogenic substrate.
To assess whether the addition of a serine residue to NGR-TNF affects its capability to recognize the TNF receptors and, consequently, its biological activity, inventors then analyzed the cytotoxic activity of TNF, NGR-TNF and S-NGR-TNF in the LM-cells cytolytic assay.

Series [4] addresses T1, recombinant human histidine-tagged CD13 (human, UniProt P15144 69-967, limits assumed).
T1 construct: Histidine tag present; also called aminopeptidase N
Briefly: CD13 enzyme kinetics inhibition, 60 mM potassium phosphate buffer, pH 7.4. From the text: FIG. 10. The peptide […] (SEQ ID NO: 3) inhibits CD13 enzymatic activity more efficiently than […] (SEQ ID NO:4) and acetylated-[…]. A) Steady state kinetic analysis of CD13 in the presence of various amounts of L-alanine p-nitroanilide substrate and […] (SEQ ID NO: 3), […] (SEQ ID NO:4), or acetylated-[…] (ac-[…]) (SEQ ID NO:42). A representative plot of 3-4 independent experiments, showing the initial velocity (V₀) versus substrate concentration (mean ± SE of four technical replicates), is shown. The assays were performed with recombinant human histidine-tagged CD13 (200-300 ng/ml) in 60 mM potassium phosphate buffer, pH 7.4, at room temperature. The kinetic of p-nitroanilide formation was monitored spectrophotometrically (A405 nm) for 5-10 min. The inhibitory constant (Ki) reported in each plot is the result of the 3-4 independent experiments (mean ± SE). B) Double reciprocal plots of the experiments reported in panel A.
Each experiment was performed with 4 technical replicates

The target of series [5] is T1, recombinant human histidine-tagged CD13. Briefly: CD13 enzyme kinetics inhibition, 50 mM Tris-HCl buffer, pH 7.4.
Series [6] concerns the target T2, αvβ6 integrin (UniProt P06756 31-992; P18564 22-707, limits assumed).
T2 construct: Coated on microtiter plates
In words: competitive binding assay, integrin-coated plates; competitor probe acetyl-CisoDGRCG/streptavidin-peroxidase. From the text: (§1) To assess whether the isoDGR derivative of S-NGR-TNF and NGR-TNF targeting domains can recognize integrins with similar affinities inventors then analysed the binding of SCiso[…] (SEQ ID NO: 17), Ciso[…] and acetyl-Ciso[…] to αvβ3, αvβ5, αvβ6 αvβ8 and α5β1 integrins using a competitive binding assay previously described (Curnis et al. 2010). […] Considering that human NGR-TNF contains acetylated and non-acetylated forms and that both CNGRC (SEQ ID NO:5) and acetyl-CNGRC can undergo deamidation (Curnis et al. 2010), inventors can conclude that the isoDGR derivative of S-NGR-TNF, if formed, behave in a manner similar to those of the isoDGR derivatives of NGR-TNF in terms of integrin recognition.
(§2) a) Competitive binding of acetyl-CisoDGRCG/streptavidin-peroxidase to integrins. The binding assay was performed using integrin-coated microtiterplates as previously described (Curnis et al. 2013). b) n, number of independent experiments, each in duplicate.

For series [7], the target named is T3, αvβ8 integrin (UniProt P06756 31-992; P26012 43-684, limits assumed).
T3 construct: Coated on microtiter plates
Described as above.
Text: as §1, §2

Series [8] has as its target T4, αvβ5 integrin (UniProt P06756 31-992; P18084 24-719, limits assumed).
T4 construct: Coated on microtiter plates
The description is as above.
Text: as §1, §2

Series [9] addresses T5, αvβ3 integrin (UniProt P06756 31-992; P05106 27-718, limits assumed).
T5 construct: Coated on microtiter plates
The series is described as above.
Text: as §1, §2

The target in series [10] is T6, α5β1 integrin (UniProt P08648 42-995; P05556 21-728, limits assumed).
T6 construct: Coated on microtiter plates
The description is as above.
Text: as §1, §2

In the case of `CC(C)[C@H](NC(=O)CNC(=O)[C@@H]1CSSC[C@H](N)C(=O)N[C@@H](CC(N)=O)C(=O)NCC(=O)N[C@@H](CCCNC(=N)N)C(=O)N1)C(=O)N[C@@H](CCCNC(=N)N)C(=O)N[C@@H](Cc1ccc(O)cc1)C(=O)O` [CNGRCGVRY, CNGRCGVRY (SEQ ID NO:4), reference compound] (H-CNGRCGVRY-OH; disulfide 1-5 (inferred); N-terminus and C-terminus assumed), the “-17 Da form (succinimide intermediate of deamidation)” value in series [1] (after 2 h at 37° C. in PBS) is “observed”. Further, in series [1] (after 32 h at 37° C. in PBS), the “+1 Da deamidation product (DGR/isoDGR)” value is recorded as “observed” and the “-17 Da form still present” value is given as “a large amount of the -17 Da form was still present”.

On to `CC(C)[C@H](NC(=O)CNC(=O)[C@@H]1CSSC[C@H](NC(=O)[C@@H](N)CO)C(=O)N[C@@H](CC(=O)O)C(=O)NCC(=O)N[C@@H](CCCNC(=N)N)C(=O)N1)C(=O)N[C@@H](CCCNC(=N)N)C(=O)N[C@@H](Cc1ccc(O)cc1)C(=O)O` [SCDGRCGVRY, SCDGRCGVRY (SEQ ID NO:22)] (H-SCDGRCGVRY-OH; disulfide 2-6; N-terminus and C-terminus assumed), for which, in series [2], the affinity for integrins entry was “no or very low affinity”.

Take “TNF: Murine tumor necrosis factor-α (SEQ ID NO: 15) [reference compound]”: the EC50 cytotoxic activity entry in [3] is “very similar”.

B1: acetylated-CNGRCGVRY peptide (peptide)
peptide: Ac-CNGRCGVRY
modifications: disulfide 1-5
As to B1, the inhibition constant Ki (in general, a dissociation constant, usually derived from enzyme kinetics or from competition with a known ligand) in series [4] is 50.7 µM; in series [5], 38.1 µM.

B2: SCisoDGRCGVRY peptide (peptide)
peptide: SC[βAsp]GRCGVRY
modifications: disulfide 2-6
On to B2, for which the Ki in series [6] is 25 nM; in [7], 156 nM; in series [8], 77 nM; in series [9], 17 nM; in series [10], 11 nM.

B3: acetyl-CisoDGRCGVRY peptide (peptide)
peptide: Ac-C[βAsp]GRCGVRY
modifications: disulfide 1-5
On to B3, for which the Ki is 5 nM in series [6]; 18 nM in series [7]; 21 nM in series [8]; 3 nM in series [9]; 4 nM in series [10].

B4: CisoDGRCGVRY peptide (peptide)
peptide: C[βAsp]GRCGVRY
modifications: disulfide 1-5
With B4, the Ki in [6] turned out to be 131 nM; in series [7], 554 nM; in series [8], 391 nM; in series [9], 11 nM; in series [10], 75 nM.

B5: SCNGRCGVRY peptide (peptide)
peptide: SCNGRCGVRY
modifications: disulfide 2-6
notes: Synthetic peptide corresponding to the N-terminal region of human S-NGR-TNF
As to B5, the inhibition constant Ki in series [4] was 25 µM; in series [6], more than 10000 nM; in series [7], more than 10000 nM; in series [8], more than 10000 nM; in series [9], more than 10000 nM; in series [10], more than 10000 nM. In addition, in [5], the inhibitory constant (Ki) came out at 6.8 µM.

B6: SCDGRCGVRY peptide (peptide)
peptide: SCDGRCGVRY
Take B6: the Ki in [6] amounted to 5500 nM; in series [7] it was 21400 nM; in series [8], 779 nM; in series [9], 3340 nM; in [10], 4790 nM.

B7: CNGRCGVRY peptide (peptide)
peptide: CNGRCGVRY
modifications: disulfide 1-5
notes: Synthetic peptide corresponding to the N-terminal region of human NGR-TNF
On to B7, for which the Ki was found to be 76.5 µM in series [4] and 35.6 µM in series [5].
